Here are results for 29 molecules from patent US20240368267A1 (KODIAK SCIENCES, published 2024).

B1: anti-IL-6 antibody, heavy chain G66D / light chain WT (antibody, human IgG1, V domains shown)
VH: EVQLVESGGGLVQPGGSLRLSCAASGFTFSPFAMSWVRQAPGKGLEWVAKISPGGSWTYYSDTVTDRFTFSLDTSKSTAYLQMNSLRAEDTAVYYCARQLWGYYALDIWGQGTLVTVSS
VL: DIQLTQSPSSLSASVGDRVTITCSASISVSYMYWYQQKPGKAPKLLIYDMSNLASGVPSRFSGSGSGTDFTLTISSLQPEDFATYYCMQWSGYPYTFGQGTKVEIK
notes: Derived as m2; Engineered human IgG1
B2: anti-IL-6 antibody, heavy chain S35H, G66D / light chain WT (antibody, human IgG1, V domains shown)
VH: B1 VH with S35H
VL: B1 VL
notes: as for B1
B3: anti-IL-6 antibody, heavy chain T63K, G66D / light chain WT (antibody, human IgG1, V domains shown)
VH: B1 VH with T63K
VL: B1 VL
notes: as for B1
B4: anti-IL-6 antibody, heavy chain T63E, G66D / light chain WT (antibody, human IgG1, V domains shown)
VH: B1 VH with T63E
VL: B1 VL
notes: as for B1
B5: anti-IL-6 antibody, heavy chain T65R, G66D / light chain WT (antibody, human IgG1, V domains shown)
VH: B1 VH with T65R
VL: B1 VL
notes: as for B1
B6: anti-IL-6 antibody, heavy chain T63S, G66D / light chain WT (antibody, human IgG1, V domains shown)
VH: B1 VH with T63S
VL: B1 VL
notes: as for B1
B7: anti-IL-6 antibody, heavy chain T65F, G66D / light chain WT (antibody, human IgG1, V domains shown)
VH: B1 VH with T65F
VL: B1 VL
notes: as for B1
B8: anti-IL-6 antibody, heavy chain T65L, G66D / light chain WT (antibody, human IgG1, V domains shown)
VH: B1 VH with T65L
VL: B1 VL
notes: as for B1
B9: anti-IL-6 antibody, heavy chain T65G, G66D / light chain WT (antibody, human IgG1, V domains shown)
VH: B1 VH with T65G
VL: B1 VL
notes: as for B1
B10: anti-IL-6 antibody, heavy chain T63V, G66D / light chain WT (antibody, human IgG1, V domains shown)
VH: B1 VH with T63V
VL: B1 VL
notes: as for B1
B11: anti-IL-6 antibody, heavy chain T63P, G66D / light chain WT (antibody, human IgG1, V domains shown)
VH: B1 VH with T63P
VL: B1 VL
notes: as for B1
B12: anti-IL-6 antibody, heavy chain T63I, G66D / light chain WT (antibody, human IgG1, V domains shown)
VH: B1 VH with T63I
VL: B1 VL
notes: as for B1
B13: anti-IL-6 antibody, heavy chain T63G, G66D / light chain WT (antibody, human IgG1, V domains shown)
VH: B1 VH with T63G
VL: B1 VL
notes: as for B1
B14: anti-IL-6 antibody, heavy chain T63W, G66D / light chain WT (antibody, human IgG1, V domains shown)
VH: B1 VH with T63W
VL: B1 VL
notes: as for B1
B15: anti-IL-6 antibody, heavy chain T65A, G66D / light chain WT (antibody, human IgG1, V domains shown)
VH: B1 VH with T65A
VL: B1 VL
notes: as for B1
B16: anti-IL-6 antibody, heavy chain T63F, G66D / light chain WT (antibody, human IgG1, V domains shown)
VH: B1 VH with T63F
VL: B1 VL
notes: as for B1
B17: anti-IL-6 antibody, heavy chain T65D, G66D / light chain WT (antibody, human IgG1, V domains shown)
VH: B1 VH with T65D
VL: B1 VL
notes: as for B1
B18: anti-IL-6 antibody, heavy chain T65Y, G66D / light chain WT (antibody, human IgG1, V domains shown)
VH: B1 VH with T65Y
VL: B1 VL
notes: as for B1
B19: anti-IL-6 antibody, heavy chain T65W, G66D / light chain WT (antibody, human IgG1, V domains shown)
VH: B1 VH with T65W
VL: B1 VL
notes: as for B1
B20: anti-IL-6 antibody, heavy chain T65P, G66D / light chain WT (antibody, human IgG1, V domains shown)
VH: B1 VH with T65P
VL: B1 VL
notes: as for B1
B21: anti-IL-6 antibody, heavy chain T63L, G66D / light chain WT (antibody, human IgG1, V domains shown)
VH: B1 VH with T63L
VL: B1 VL
notes: as for B1
B22: anti-IL-6 antibody, heavy chain T63Y, G66D / light chain WT (antibody, human IgG1, V domains shown)
VH: B1 VH with T63Y
VL: B1 VL
notes: as for B1
B23: anti-IL-6 antibody, heavy chain T65E, G66D / light chain WT (antibody, human IgG1, V domains shown)
VH: B1 VH with T65E
VL: B1 VL
notes: as for B1
B24: anti-IL-6 antibody, heavy chain T65V, G66D / light chain WT (antibody, human IgG1, V domains shown)
VH: B1 VH with T65V
VL: B1 VL
notes: as for B1
B25: anti-IL-6 antibody, heavy chain T65H, G66D / light chain WT (antibody, human IgG1, V domains shown)
VH: B1 VH with T65H
VL: B1 VL
notes: as for B1
B26: anti-IL-6 antibody, heavy chain T65K, G66D / light chain WT (antibody, human IgG1, V domains shown)
VH: B1 VH with T65K
VL: B1 VL
notes: as for B1
B27: anti-IL-6 antibody, heavy chain T63H, G66D / light chain WT (antibody, human IgG1, V domains shown)
VH: B1 VH with T63H
VL: B1 VL
notes: as for B1
B28: anti-IL-6 antibody, heavy chain T63R, G66D / light chain WT (antibody, human IgG1, V domains shown)
VH: B1 VH with T63R
VL: B1 VL
notes: as for B1
B29: anti-IL-6 antibody, heavy chain T65S, G66D / light chain WT (antibody, human IgG1, V domains shown)
VH: B1 VH with T65S
VL: B1 VL
notes: as for B1

Positions count from the first letter of the chain named. Names and notes keep the numbering of the source.

T1 sequence (P05231 30-212 limits assumed): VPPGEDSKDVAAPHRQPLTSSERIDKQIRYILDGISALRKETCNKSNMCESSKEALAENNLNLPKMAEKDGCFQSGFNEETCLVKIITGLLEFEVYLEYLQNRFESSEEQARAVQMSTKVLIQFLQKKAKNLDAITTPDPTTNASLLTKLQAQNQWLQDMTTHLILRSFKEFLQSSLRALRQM

The first experiment concerns the target T1, human IL-6 (human, UniProt P05231 30-212).
T1 construct: also called interleukin-6
The experiment is described as follows: SPR (Biacore T200), purified antibody captured on Protein A, IL-6 flowed over, 37 C. Here is the method: (§1) Antibodies were captured on a Protein A chip (GE) by injecting 1:20 cell supernatant dilutions at 10 μL/min for 60 seconds. […] The sensor chip was regenerated by a 60 seconds injection of 10 mM Glycine pH 1.7 at the flow rate of […]. […] For this setup, 1 μg/mL of purified antibody was injected over a Protein A chip at 10 μL/min for 25 seconds. […] The sensor chip was regenerated by a 60 seconds injection of 10 mM Glycine pH 1.7 at flow rate of 50 μL/min. Data analysis for supernatant and purified samples were performed using BIAevaluation software (GE). All sensorgrams were double reference subtracted and fit using a 1:1 Langmuir binding model.
Broadly, the Kd is a measure of binding affinity in units of concentration. What is called koff is the first-order rate constant of dissociation. High values mean fast dissociation, low ones slow dissociation. Usually kon stands for the second-order rate constant of association. Consider B1, for which the Kd is 0.113 nM, the off-rate constant (koff) came to 0.000178 s⁻¹ and the association rate constant (kon) is 1.57e+06 M⁻¹ s⁻¹.
The molecule B2 yielded a Kd of 0.105 nM, a koff of 0.000185 s⁻¹ and a kon of 1.77e+06 M⁻¹ s⁻¹.
In turn, B3 came in with a dissociation constant Kd of 0.161 nM, a koff of 0.000235 s⁻¹ and a kon of 1.46e+06 M⁻¹ s⁻¹.
The matching figures for B4: 0.147 nM, 0.000252 s⁻¹ and 1.72e+06 M⁻¹ s⁻¹.

The target in the next experiment is T1, human IL-6. The experiment is described as follows: SPR (Biacore T200), antibody from cell supernatant captured on Protein A, IL-6 flowed over, 37 C. Here is the method:
Those four positions were selected based on their tolerance for mutations as observed in bacterial and mammalian screens. […] These cultures were centrifuged and supernatants containing secreted antibodies were harvested and diluted in HBS-EP+ running buffer (1:20 ratio).
as §1
(In general: SPR reads the build-up and loss of mass on a sensor chip optically.)
The molecule B1 came in with a dissociation constant Kd of 0.215 nM, an off-rate constant (koff) of 0.000392 s⁻¹ and a kon of 1.83e+06 M⁻¹ s⁻¹.
In the case of B5, the Kd is 0.222 nM, the koff came out at 0.000444 s⁻¹ and the kon was determined as 2e+06 M⁻¹ s⁻¹.
The matching figures for B6: 0.184 nM, 0.000464 s⁻¹ and 2.52e+06 M⁻¹ s⁻¹.
The matching figures for B7: 0.223 nM, 0.000348 s⁻¹ and 1.56e+06 M⁻¹ s⁻¹.
The matching figures for B8: 0.212 nM, 0.000375 s⁻¹ and 1.77e+06 M⁻¹ s⁻¹.
In the case of B9, binding was characterised by a dissociation constant (Kd) of 0.123 nM, the koff is 0.000218 s⁻¹ and the kon stood at 1.77e+06 M⁻¹ s⁻¹.
For B2 the same measures were 0.136 nM, 0.000397 s⁻¹ and 2.92e+06 M⁻¹ s⁻¹.
For B10 the same measures were 0.217 nM, 0.000399 s⁻¹ and 1.84e+06 M⁻¹ s⁻¹.
Molecule B11 came in with a dissociation constant Kd of 0.21 nM, a koff of 0.000436 s⁻¹ and a kon of 2.08e+06 M⁻¹ s⁻¹.
In turn, B12 returned a Kd of 0.211 nM, a koff of 0.000373 s⁻¹ and a kon of 1.77e+06 M⁻¹ s⁻¹.
The matching figures for B13: 0.213 nM, 0.000397 s⁻¹ and 1.86e+06 M⁻¹ s⁻¹.
The matching figures for B3: 0.185 nM, 0.000461 s⁻¹ and 2.49e+06 M⁻¹ s⁻¹.
For B14 the same measures were 0.251 nM, 0.000427 s⁻¹ and 1.7e+06 M⁻¹ s⁻¹.
B15: binding was put at a Kd of 0.222 nM, the off-rate (koff) amounted to 0.000364 s⁻¹ and the association rate constant (kon) was found to be 1.64e+06 M⁻¹ s⁻¹.
The molecule B16 gave a Kd of 0.221 nM, a koff of 0.000401 s⁻¹ and a kon of 1.81e+06 M⁻¹ s⁻¹.
Molecule B17 gave a Kd of 0.203 nM, a koff of 0.000442 s⁻¹ and a kon of 2.18e+06 M⁻¹ s⁻¹.
In the case of B18, the Kd is 0.224 nM, the koff is 0.000361 s⁻¹ and the kon turned out to be 1.61e+06 M⁻¹ s⁻¹.
B19 returned a Kd of 0.226 nM, a koff of 0.00037 s⁻¹ and a kon of 1.64e+06 M⁻¹ s⁻¹.
The molecule B20 returned an equilibrium dissociation constant (Kd) of 0.369 nM, a koff of 0.000568 s⁻¹ and a kon of 1.54e+06 M⁻¹ s⁻¹.
The matching figures for B21: 0.21 nM, 0.000363 s⁻¹ and 1.73e+06 M⁻¹ s⁻¹.
Molecule B22 had a Kd of 0.21 nM, a koff of 0.000383 s⁻¹ and an on-rate constant (kon) of 1.82e+06 M⁻¹ s⁻¹.
Regarding B23, the Kd stood at 0.194 nM, the off-rate constant (koff) turned out to be 0.000427 s⁻¹ and the kon is 2.2e+06 M⁻¹ s⁻¹.
The molecule B4 registered a Kd of 0.178 nM, a koff of 0.000464 s⁻¹ and a kon of 2.61e+06 M⁻¹ s⁻¹.
The matching figures for B24: 0.175 nM, 0.000504 s⁻¹ and 2.88e+06 M⁻¹ s⁻¹.
For B25 the same measures were 0.219 nM, 0.000356 s⁻¹ and 1.63e+06 M⁻¹ s⁻¹.
With B26, the equilibrium dissociation constant (Kd) is 0.262 nM, the koff was determined as 0.000412 s⁻¹ and the kon was 1.57e+06 M⁻¹ s⁻¹.
Molecule B27 showed a Kd of 0.213 nM, an off-rate (koff) of 0.00042 s⁻¹ and a kon of 1.98e+06 M⁻¹ s⁻¹.
B28 returned a Kd of 0.173 nM, a koff of 0.00046 s⁻¹ and a kon of 2.66e+06 M⁻¹ s⁻¹.
For the molecule B29, the Kd came to 0.21 nM, the koff was found to be 0.000383 s⁻¹ and the on-rate constant (kon) stood at 1.82e+06 M⁻¹ s⁻¹.
